Measurements taken from PMC8586658 (Cancer Science, 2021).

Target: T1, mouse IL‐2Rα on 293T cells (293Tα) (mouse, UniProt P01590 22-268)
T1 sequence: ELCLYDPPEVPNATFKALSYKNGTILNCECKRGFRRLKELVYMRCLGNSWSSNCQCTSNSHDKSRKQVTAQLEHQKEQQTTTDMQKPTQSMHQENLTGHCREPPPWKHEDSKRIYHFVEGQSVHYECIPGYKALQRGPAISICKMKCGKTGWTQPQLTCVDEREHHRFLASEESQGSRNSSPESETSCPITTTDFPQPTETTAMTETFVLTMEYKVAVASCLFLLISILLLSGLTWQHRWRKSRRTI
Assay: binding of NanoLuc fusion proteins to cells

mouse 293Tα/293T ratio: 1.8 ratio
B1: Mutakine‐6 (MK‐6), IL‐2 K35A/R38A/K43A/Y45A on the MK‐0 template, fused to NanoLuc (ligand)
chain: APASSSTKKTQLQLEHLLLDLQMILNGINNYKNPALTAMLTFAFAMPKKATELKHLQCLEEELKPLEEVLNLAQSKNFHLRPRDLISNINVIVLELKGSETTFMCEYADETATIVEFLNRWITFAQSIISTLT
